{"source": "patent US20170313769A1", "about": "(Pfizer, published 2017)", "key": {"[1]": {"target": "T1, Human IFNβ (mature human interferon beta) (human, UniProt P01574 22-187)", "T1 construct": "Recombinant human IFNβ (Peprotech for SPR); In some functional assays it is endogenous IFNβ secreted by primary human cells; also called hIFN-β; recombinant human IFNβ", "test": "SPR, Biacore T200; antibody amine-coupled on CM5 chip, human IFNβ as analyte, 1:1 model"}, "CID1286": {"target": "T2, CID1286 (human (IFNβ with IFNα sequence inserted), UniProt P01574 22-187)", "T2 chain": "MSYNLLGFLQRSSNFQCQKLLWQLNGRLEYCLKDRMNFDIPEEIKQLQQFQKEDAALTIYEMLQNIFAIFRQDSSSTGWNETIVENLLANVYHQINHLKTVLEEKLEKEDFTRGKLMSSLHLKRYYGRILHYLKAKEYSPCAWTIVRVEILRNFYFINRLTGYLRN", "test": "cell-based or functional assay"}, "CID1280": {"target": "T3, CID1280 (human (IFNβ with IFNα sequence inserted), UniProt P01574 22-187)", "T3 chain": "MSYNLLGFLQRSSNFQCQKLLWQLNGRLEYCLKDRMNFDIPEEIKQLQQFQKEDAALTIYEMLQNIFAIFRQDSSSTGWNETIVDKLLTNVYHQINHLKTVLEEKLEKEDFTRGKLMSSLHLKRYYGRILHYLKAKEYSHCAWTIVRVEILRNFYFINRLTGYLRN", "test": "cell-based or functional assay"}, "CID1277": {"target": "T4, CID1277 (human (IFNβ with IFNα sequence inserted), UniProt P01574 22-187)", "T4 chain": "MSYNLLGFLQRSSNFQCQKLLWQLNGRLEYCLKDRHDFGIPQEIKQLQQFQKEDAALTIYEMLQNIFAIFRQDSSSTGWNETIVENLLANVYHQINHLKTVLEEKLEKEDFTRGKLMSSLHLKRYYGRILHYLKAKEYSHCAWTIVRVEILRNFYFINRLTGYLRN", "test": "cell-based or functional assay"}, "[2]": {"target": "T1, Human IFNβ (mature human interferon …)", "test": "cell-based or functional assay"}, "CID1287": {"target": "T5, CID1287 (human (IFNβ with IFNα sequence inserted), UniProt P01574 22-187)", "T5 chain": "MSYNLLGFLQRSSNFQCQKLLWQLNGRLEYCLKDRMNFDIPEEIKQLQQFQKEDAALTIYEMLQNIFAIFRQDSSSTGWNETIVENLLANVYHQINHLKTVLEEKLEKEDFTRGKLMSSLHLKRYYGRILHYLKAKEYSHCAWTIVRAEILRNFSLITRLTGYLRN", "test": "cell-based or functional assay"}, "CID1283": {"target": "T6, CID1283 (human (IFNβ with IFNα sequence inserted), UniProt P01574 22-187)", "T6 chain": "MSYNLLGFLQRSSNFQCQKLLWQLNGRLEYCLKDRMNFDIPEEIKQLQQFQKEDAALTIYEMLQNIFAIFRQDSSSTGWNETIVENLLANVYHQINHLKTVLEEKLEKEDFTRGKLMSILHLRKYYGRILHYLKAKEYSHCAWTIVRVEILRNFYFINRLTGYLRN", "test": "cell-based or functional assay"}, "Human IFNγ": {"target": "T7, Human IFNγ (human, UniProt P01579 24-166, limits assumed)", "T7 construct": "also called IFNγ (type II)", "T7 sequence (looked up)": "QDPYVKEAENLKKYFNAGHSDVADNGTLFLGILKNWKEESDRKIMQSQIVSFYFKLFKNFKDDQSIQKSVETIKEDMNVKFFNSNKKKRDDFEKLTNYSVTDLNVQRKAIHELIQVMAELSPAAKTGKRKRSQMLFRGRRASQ", "test": "plate ELISA, IFNγ coated at 5 µg/mL"}, "[3]": {"target": "T1, Human IFNβ (mature human interferon …)", "test": "Octet (BLI) response rank; method not described"}, "[4]": {"target": "T1, Human IFNβ (mature human interferon …)", "test": "cell-based or functional assay", "remark": "listed apart in the source"}, "Cynomolgus monkey IFNβ": {"target": "T8, Cynomolgus monkey IFNβ (cynomolgus monkey, UniProt O77812 22-187)", "T8 construct": "also called cyno-IFNβ", "T8 sequence (O77812 22-187)": "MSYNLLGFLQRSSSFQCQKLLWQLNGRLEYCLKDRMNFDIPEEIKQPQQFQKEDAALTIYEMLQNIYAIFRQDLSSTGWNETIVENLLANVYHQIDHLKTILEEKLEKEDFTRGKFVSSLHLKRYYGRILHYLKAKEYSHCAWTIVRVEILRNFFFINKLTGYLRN", "test": "ELISA (summary value); cynomolgus monkey IFNβ"}, "[5]": {"target": "T1, Human IFNβ (mature human interferon …)", "test": "ELISA (summary value); human IFNβ"}, "Rabbit IFNβ": {"target": "T9, Rabbit IFNβ (rabbit)", "T9 chain": "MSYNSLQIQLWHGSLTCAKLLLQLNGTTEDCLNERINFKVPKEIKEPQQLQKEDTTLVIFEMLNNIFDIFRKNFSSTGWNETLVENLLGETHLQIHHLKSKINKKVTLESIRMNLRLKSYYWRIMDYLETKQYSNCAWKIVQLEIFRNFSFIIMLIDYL", "test": "plate ELISA, rabbit IFNβ coated at 10 ng/mL"}, "[6]": {"target": "T1, Human IFNβ (mature human interferon …)", "test": "SPR, Biacore T200; CTI-AF1 immobilized on CM5 chip, human IFNβ (Peprotech) 10 to 0.078125 nM, 1:1 model"}, "Rat IFNβ": {"target": "T10, Rat IFNβ (rat, UniProt P70499 22-184)", "T10 sequence": "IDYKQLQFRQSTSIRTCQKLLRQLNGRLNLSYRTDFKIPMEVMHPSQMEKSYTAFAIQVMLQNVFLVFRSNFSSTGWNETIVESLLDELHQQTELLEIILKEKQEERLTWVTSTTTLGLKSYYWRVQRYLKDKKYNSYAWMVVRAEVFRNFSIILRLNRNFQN", "test": "plate ELISA, rat IFNβ coated at 5 µg/mL"}, "Human IFNω": {"target": "Human IFNω (human, UniProt P05000 24-195)", "sequence (P05000 24-195)": "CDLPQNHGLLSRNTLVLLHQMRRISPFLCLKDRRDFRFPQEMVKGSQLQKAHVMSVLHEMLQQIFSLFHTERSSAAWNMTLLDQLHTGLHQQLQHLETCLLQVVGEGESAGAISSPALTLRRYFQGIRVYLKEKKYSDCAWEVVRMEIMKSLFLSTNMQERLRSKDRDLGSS", "test": "plate ELISA, human IFNω coated at 5 µg/mL"}, "[7]": {"target": "T1, Human IFNβ (mature human interferon …)", "test": "SPR (affinity maturation); after affinity maturation (four light chain mutations)"}, "[8]": {"target": "T1, Human IFNβ (mature human interferon …)", "test": "cell-based or functional assay", "remark": "listed apart in the source"}}}
{"binder": "CTI-AF1 (antibody, human IgG1, kappa, V domains shown, Humanized IgG1; The C-terminal K of the heavy chain is printed as optional, '(K)'; also called anti-IFNβ antibody; humanized IgG1 antibody against interferon beta) VH: QVQLVQSGAEVKKPGSSVKVSCKASGYTFSRYWMHWVRQAPGQGLEWMGHIDPSDSYTYYNQKFKGRVTITADESTSTAYMELSSLRSEDTAVYYCARWDYGNLLFEYWGQGTLVTVSS VL: DIQMTQSPSSLSASVGDRVTITCRTSQDIGNYLNWYQQKPGKAFKLLIYSTSRLHSGVPSRFSGSGSGTDFTLTISSLQPEDFATYYCQQGIILPITFGGGTKVEIKR", "values": [{"measurement": "Kd", "setting": "[1]", "result": 0.036, "unit": "nM"}, {"measurement": "IC50 (nM), neutralization of type I IFN-induced STAT1 phosphorylation", "setting": "CID1286", "result": 0.4, "unit": "nM"}, {"measurement": "IC50 (nM), neutralization of type I IFN-induced STAT1 phosphorylation", "setting": "CID1280", "result": 47.7, "unit": "nM"}, {"measurement": "IC50 (nM), neutralization of type I IFN-induced STAT1 phosphorylation", "setting": "CID1277", "result": 0.3, "unit": "nM"}, {"measurement": "IC50 (nM), neutralization of type I IFN-induced STAT1 phosphorylation", "setting": "[2]", "result": 0.3, "unit": "nM"}, {"measurement": "IC50 (nM), neutralization of type I IFN-induced STAT1 phosphorylation", "setting": "CID1287", "result": 0.3, "unit": "nM"}, {"measurement": "IC50 (nM), neutralization of type I IFN-induced STAT1 phosphorylation", "setting": "CID1283", "result": 0.4, "unit": "nM"}, {"measurement": "binding result", "setting": "Human IFNγ", "result": "no binding"}, {"measurement": "Response rank (Octet)", "setting": "[3]", "result": 1, "unit": "rank"}, {"measurement": "IC50, IFNβ induced luciferase activity in HEK293 ISRE-Luc cells", "setting": "[4]", "result": 28.8, "unit": "pM"}, {"measurement": "IC50, M×A (M×1) gene expression in human dermal fibroblasts stimulated with recombinant IFNβ", "setting": "[4]", "result": 29.4, "unit": "pM"}, {"measurement": "IC50, inhibition of IFNβ induced STAT1 phosphorylation in U937 cells (phosflow)", "setting": "[4]", "result": 29.8, "unit": "pM"}, {"measurement": "IC50, neutralization of IFNβ induced STAT1 phosphorylation", "setting": "[4]", "result": 7.7, "unit": "pM"}, {"measurement": "EC50", "setting": "Cynomolgus monkey IFNβ", "result": 0.025, "unit": "nM"}, {"measurement": "EC50", "setting": "[5]", "result": 0.0153, "unit": "nM"}, {"measurement": "EC50", "setting": "Rabbit IFNβ", "result": 2.95, "unit": "nM"}, {"measurement": "Kd", "setting": "[6]", "result": 0.0367, "unit": "nM"}, {"measurement": "binding result", "setting": "Rat IFNβ", "result": "no binding"}, {"measurement": "binding result", "setting": "Human IFNω", "result": "no binding"}, {"measurement": "Kd", "setting": "[7]", "result": 0.029, "unit": "nM"}, {"measurement": "IC50 (pM) ISRE Neutralization", "setting": "[8]", "result": 2, "unit": "pM"}, {"measurement": "IC50 (pM) pSTAT1 Inhibition", "setting": "[8]", "result": 4, "unit": "pM"}]}
